From the supplement of paper PMC9112550, “Optimization of the antimicrobial peptide Bac7 by deep mutational scanning” (BMC Biology, 2022)

System: Escherichia coli TOP10
Test: shrunken log2 fold change of peptide-encoding DNA abundance (4.5 h post-induction vs induction); higher = less antimicrobial activity (less host growth inhibition)
Conditions: time post-induction: 4.5 h; library: site-saturation at positions 5, 18, 19, 20
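Also: peptides expressed intracellularly from a pBAD plasmid library in pooled LB shake-flask culture, induced with 0.3% L-arabinose, DNA abundance read by NGS, three biological replicates, DESeq2 with apeglm shrinkage.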

| Sequence | shrunken log2 fold change |
| --- | --- |
| RRIRWRPPRLPRPRPRPGHCPRP | -0.101 |
| RRIRYRPPRLPRPRPRPQYCPRP | -0.361 |
| RRIRDRPPRLPRPRPRPAEMPRP | 0.515 |
| RRIRFRPPRLPRPRPRPDYVPRP | -0.00174 |
| RRIRLRPPRLPRPRPRPPEVPRP | -0.0157 |
| RRIRWRPPRLPRPRPRPSFEPRP | -0.0836 |
| RRIRLRPPRLPRPRPRPRIDPRP | -0.0317 |
| RRIRARPPRLPRPRPRPCPWPRP | -0.0222 |
| RRIRGRPPRLPRPRPRPISYPRP | -0.0956 |
| RRIRSRPPRLPRPRPRPRLIPRP | 0.288 |
| RRIRWRPPRLPRPRPRPFYFPRP | 0.0389 |
| RRIRRRPPRLPRPRPRPREAPRP | 0.254 |
| RRIRHRPPRLPRPRPRPKWHPRP | -0.108 |
| RRIRPRPPRLPRPRPRPWSKPRP | 0.00178 |
| RRIRKRPPRLPRPRPRPRFLPRP | 0.101 |
| RRIRNRPPRLPRPRPRPAFDPRP | 0.235 |
| RRIRLRPPRLPRPRPRPAQSPRP | 0.485 |
| RRIRDRPPRLPRPRPRPYKRPRP | 0.000522 |
| RRIRFRPPRLPRPRPRPRDLPRP | -0.00831 |
| RRIRDRPPRLPRPRPRPMKDPRP | -0.0395 |

| Sequence | shrunken log2 fold change |
| --- | --- |
| RRIRHRPPRLPRPRPRPDCKPRP | -0.148 |
| RRIRQRPPRLPRPRPRPGDHPRP | -0.0718 |
| RRIRHRPPRLPRPRPRPICTPRP | -0.485 |
| RRIRRRPPRLPRPRPRPYALPRP | -0.5 |
| RRIRWRPPRLPRPRPRPHLCPRP | -0.147 |
| RRIRQRPPRLPRPRPRPAHEPRP | 0.185 |
| RRIRKRPPRLPRPRPRPLRLPRP | 1.16 |
| RRIRSRPPRLPRPRPRPVMEPRP | -0.0868 |
| RRIRWRPPRLPRPRPRPWFYPRP | -0.705 |
| RRIRERPPRLPRPRPRPYHQPRP | -0.416 |
| RRIRQRPPRLPRPRPRPQWFPRP | 0.0435 |
| RRIRYRPPRLPRPRPRPCTSPRP | -0.679 |
| RRIRHRPPRLPRPRPRPRAEPRP | 0.12 |
| RRIRIRPPRLPRPRPRPEWGPRP | -0.0166 |
| RRIRNRPPRLPRPRPRPKSRPRP | -0.0139 |
| RRIRMRPPRLPRPRPRPEAPPRP | 3.4 |
| RRIRIRPPRLPRPRPRPLQYPRP | -0.591 |
| RRIRMRPPRLPRPRPRPHIAPRP | 0.13 |
| RRIRWRPPRLPRPRPRPVTCPRP | -0.00133 |
| RRIRERPPRLPRPRPRPKAIPRP | -0.0487 |

| Sequence | shrunken log2 fold change |
| --- | --- |
| RRIRRRPPRLPRPRPRPKWRPRP | 0.587 |
| RRIRTRPPRLPRPRPRPWLRPRP | -0.161 |
| RRIRCRPPRLPRPRPRPEANPRP | 0.477 |
| RRIRKRPPRLPRPRPRPFALPRP | 0.186 |
| RRIRSRPPRLPRPRPRPFFFPRP | 0.168 |
| RRIRHRPPRLPRPRPRPGEYPRP | -0.219 |
| RRIRLRPPRLPRPRPRPRNKPRP | -0.156 |
| RRIRPRPPRLPRPRPRPCGPPRP | 0.189 |
| RRIRGRPPRLPRPRPRPLDPPRP | 0.9 |
| RRIRFRPPRLPRPRPRPWMYPRP | -0.673 |
| RRIRLRPPRLPRPRPRPQHEPRP | -0.0398 |
| RRIRTRPPRLPRPRPRPPHWPRP | 0.333 |
| RRIRSRPPRLPRPRPRPTKKPRP | 0.0472 |
| RRIRLRPPRLPRPRPRPWREPRP | -0.018 |
| RRIRYRPPRLPRPRPRPPEGPRP | -0.455 |
| RRIRSRPPRLPRPRPRPGRGPRP | 0.715 |
| RRIRWRPPRLPRPRPRPNHTPRP | -0.323 |
| RRIRERPPRLPRPRPRPDEQPRP | -0.00815 |
| RRIRFRPPRLPRPRPRPCEPPRP | 0.0391 |
| RRIRMRPPRLPRPRPRPYCWPRP | -0.134 |
